In patent publication US20220259593A1, “CONTROL OF MAMMALIAN GENE DOSAGE USING CRISPR” (The Regents of the University of California, priority 2019, published 2022):
Numbering of substitutions follows the chain as printed.

B1: cr261 (nucleic acid)
guide: GTTTAAGAGCTAAGCTGGAAACAGCATAGCAAGGTTAAATAAGGCTAGTCCGGTATCAACTTGAAAAAGTGGCACCGAGTCGGTGCT
modifications: listed as DNA, chemistry not fully specified
B2: cr413 (nucleic acid)
guide: B1 guide with G33C, G34T, G53T, C75A, G83T
modifications: listed as DNA, chemistry not fully specified
B3: cr042 (nucleic acid)
guide: B1 guide with T3G, T4G, G34T, G53T
modifications: listed as DNA, chemistry not fully specified
B4: cr170 (nucleic acid)
guide: B1 guide with G53T, G72A, C86T
modifications: listed as DNA, chemistry not fully specified
B5: cr448 (nucleic acid)
guide: B1 guide with G33C, G34T, G44C, C50G, G53T
modifications: listed as DNA, chemistry not fully specified
B6: cr541 (nucleic acid)
guide: B1 guide with G34T, G43A, C45G, G48C, C51T, G53T, C73T, G85A
modifications: listed as DNA, chemistry not fully specified
B7: cr954 (nucleic acid)
guide: B1 guide with G53T, C60A, G69T
modifications: listed as DNA, chemistry not fully specified
B8: cr504 (nucleic acid)
guide: B1 guide with G53T, T62G, A67C
modifications: listed as DNA, chemistry not fully specified
B9: cr507 (nucleic acid)
guide: B1 guide with G34T, G43T, C51A, G53T, C76A, G82T
modifications: listed as DNA, chemistry not fully specified
B10: cr834 (nucleic acid)
guide: B1 guide with G53T, A65G
modifications: listed as DNA, chemistry not fully specified
B11: cr987 (nucleic acid)
guide: B1 guide with G34T, T49G, G53T, A65T
modifications: listed as DNA, chemistry not fully specified
B12: cr305 (nucleic acid)
guide: B1 guide with G53T, A74C, T84G
modifications: listed as DNA, chemistry not fully specified
B13: cr031 (nucleic acid)
guide: B1 guide with T3A, T4A, G34T, G53T
modifications: listed as DNA, chemistry not fully specified
B14: cr731 (nucleic acid)
guide: B1 guide with G53T, C73T, G85A
modifications: listed as DNA, chemistry not fully specified
B15: cr496 (nucleic acid)
guide: B1 guide with G29A, G34T, G52T, G53T, T80A
modifications: listed as DNA, chemistry not fully specified
B16: cr028 (nucleic acid)
guide: B1 guide with T3C, T4C, G34T, G53T
modifications: listed as DNA, chemistry not fully specified
B17: cr336 (nucleic acid)
guide: B1 guide with G34T, C45G, G48C, G53T, C60A, G69T, G77C, C81G
modifications: listed as DNA, chemistry not fully specified
B18: cr864 (nucleic acid)
guide: B1 guide with G29A, G34T, A41T, G53T
modifications: listed as DNA, chemistry not fully specified
B19: cr418 (nucleic acid)
guide: B1 guide with G53T, T61A, A68T
modifications: listed as DNA, chemistry not fully specified
B20: cr041 (nucleic acid)
guide: B1 guide with T2C, A5C, G34T, G53T
modifications: listed as DNA, chemistry not fully specified
B21: cr157 (nucleic acid)
guide: B1 guide with G33C, G34T, G53T, C75T, G83A
modifications: listed as DNA, chemistry not fully specified
B22: cr562 (nucleic acid)
guide: B1 guide with A31G, G33C, G34T, G53T, A65G
modifications: listed as DNA, chemistry not fully specified
B23: cr384 (nucleic acid)
guide: B1 guide with G34T, G43A, G44T, C50A, C51T, G53T
modifications: listed as DNA, chemistry not fully specified
B24: cr310 (nucleic acid)
guide: B1 guide with G34T, A41T, G53T, A66T
modifications: listed as DNA, chemistry not fully specified
B25: cr963 (nucleic acid)
guide: B1 guide with G34T, G43C, C51G, G53T, A74G, C76T, G82A, T84C
modifications: listed as DNA, chemistry not fully specified
B26: cr324 (nucleic acid)
guide: B1 guide with G34T, G43C, C51G, G53T, T61C, A68G
modifications: listed as DNA, chemistry not fully specified
B27: cr519 (nucleic acid)
guide: B1 guide with G53T, A74G, T84C
modifications: listed as DNA, chemistry not fully specified
B28: cr841 (nucleic acid)
guide: B1 guide with G53T, A59C, T70G
modifications: listed as DNA, chemistry not fully specified
B29: cr382 (nucleic acid)
guide: B1 guide with G43C, C51G, G53T
modifications: listed as DNA, chemistry not fully specified
B30: cr186 (nucleic acid)
guide: B1 guide with G53T, C60G, G69C
modifications: listed as DNA, chemistry not fully specified
B31: cr248 (nucleic acid)
guide: B1 guide with G34T, G43C, C51G, G53T
modifications: listed as DNA, chemistry not fully specified
B32: cr462 (nucleic acid)
guide: B1 guide with G33A, G34A, G53T
modifications: listed as DNA, chemistry not fully specified
B33: cr680 (nucleic acid)
guide: B1 guide with G34T, G43C, C51G, G53T, T61A, A68T, A74T, T84A
modifications: listed as DNA, chemistry not fully specified
B34: cr316 (nucleic acid)
guide: B1 guide with G34T, G43T, C51A, G53T, G77A, C81T
modifications: listed as DNA, chemistry not fully specified
B35: cr389 (nucleic acid)
guide: B1 guide with G34T, G43A, G44A, C50T, C51T, G53T
modifications: listed as DNA, chemistry not fully specified
B36: cr030 (nucleic acid)
guide: B1 guide with T2C, A5T, G34T, G53T
modifications: listed as DNA, chemistry not fully specified
B37: cr964 (nucleic acid)
guide: B1 guide with A31T, G34T, G53T, A65G
modifications: listed as DNA, chemistry not fully specified
B38: cr263 (nucleic acid)
guide: B1 guide with G34T, G53T, A66C
modifications: listed as DNA, chemistry not fully specified
B39: cr214 (nucleic acid)
guide: B1 guide with G34T, G53T, A65G, C75A, G83T
modifications: listed as DNA, chemistry not fully specified
B40: cr961 (nucleic acid)
guide: B1 guide with G34T, G53T, T62C, A67G, G72C, C73A, G85T, C86G
modifications: listed as DNA, chemistry not fully specified
B41: cr951 (nucleic acid)
guide: B1 guide with G34T, G53T, A65G, A74T, T84A
modifications: listed as DNA, chemistry not fully specified

What follows are molecules tested on K562 CRISPRi cells (assay: Constant region variant library pooled growth screen, K562). Conditions: sgRNA constant region variant; activity relative to unmodified constant region cr995; mean CRISPRi activity.
Type: cell-based, human
Method in brief: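 Cells were selected with puromycin for 2 days and then kept in RPMI-1640 spinner cultures, with duplicates handled separately. Targeting sequences comprised 3 sgRNAs per essential gene for 10 genes plus six non-targeting controls. Activities were normalized against pairing with the unmodified scaffold.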

Molecule | Mean relative activity
B1 | 0.01441
B2 | 0.01427
B3 | 0.0164
B4 | 0.01501
B5 | 0.01746
B6 | 0.01856
B7 | 0.01751
B8 | 0.01685
B9 | 0.01954
B10 | 0.01861
B11 | 0.01815
B12 | 0.02073
B13 | 0.01677
B14 | 0.01505
B15 | 0.02078
B16 | 0.01375
B17 | 0.01616
B18 | 0.01678

Molecule | Mean relative activity
B19 | 0.02069
B20 | 0.01415
B21 | 0.01383
B22 | 0.01393
B23 | 0.01438
B24 | 0.01363
B25 | 0.01551
B26 | 0.01711
B27 | 0.01933
B28 | 0.01636
B29 | 0.01715
B30 | 0.0199
B31 | 0.01369
B32 | 0.01488
B33 | 0.02086
B34 | 0.01422
B35 | 0.01944

Same assay, conditions: sgRNA constant region variants; activity relative to the original, un-modified constant region cr995

Molecule | Mean relative activity
B36 | 0.02089
B37 | 1.033
B38 | 1.033
B39 | 1.033
B40 | 1.088
B41 | 1.034
